Reference: the DeepSol protein solubility set

Experiment: soluble on expression in E. coli; label from the status in PepcDB or PDB records

Soluble on expression in E. coli, not soluble:
MGSDKIHHHHHHMDIGDKGEMLSLLKALVNIDSGSYYKEGVDRVGRMLTNAFKQIGFKVAIFKQERYGDHLLFTHPHAFDPKILLVAHMDTVFPVGTAAARPFQLIGTRAYGPGVIDMKGSLVACLYAIKALVGAQSPAVKQVAVLMTSDEEIGAPSGREIIEKIGVGKKAVLVMEPARKDGSLVTARRGGGRYTLNVTGRAAHSGVEPEKGRSAIEELAHKIMKLHALSDYKSGISVNVGVIEGGTAVNTVADRAKAKVDIRISRLEQAEPLDRDIRRICGTPDVDGTTIELKGGITRPPMERNAQTVALFQLIQQVASTIGLELTETATGGSSDASFTSALGIPTIDGMGPVGGFPHSEKEYLRVDTMQERTLLLAKVIERLSE
MGSDKIHHHHHHMDILQTANERMEQLAALMNKDIKQKVSADQKVKVGVDLGTSSIVFVVLDEHDVPLFGAFEFADAVRDGLVVNYRESVEVVTRLKERAEKCLGITLTHASGAIPPGTVGNNKKVVANVIESAGMEALYTIDEPTAAAAVLGLQDGAVVDVGGGTTGISVFENGEVIYTADEPTGGTHMTLVLAGYYGVPVEKAEQNKREQKDSSEHFSVMRPVVEKMAEITRVHLEKSPSEPLYIVGGASAYSQFKDTFESYLKTPVFQPNYPQYVTPLGIAMSSGSENL
MGSDKIHHHHHHMDISDIAANDYVEVDAEQRLGKVRSLFERENPKGVIVTEAGAYDGVITERQLIQSHIGDDTRVAAMVTDAPKVSRTEDVRETARMLVEGGTKIAPVFEAGSLWGVITEDAILDAVLANLDALDVRDIYTEHVVTVDEDDSMGRVINLLREHGISRLPVVDDAGLLSGIVTRYDIVDFVVRDTEKTTVGDRSGEIERLLDLPVSDEMTSPVKTASFDDSVRDAVDDMLAHDYSGVIVTPDDDERAVGGILTKTDVLRALSYTEEEHLDVQITNIDLLDTLSRQEVRERIENVVAKYGDMDVHHAHVRLSKHKEKLRGTPLIQSQIRLRTNKGQIAGTGEGYGADNSFHVALDKLERNVLELKGIEHDEEYEGQLLRKLNDL
MGSDKIHHHHHHMDISGRDVETRLTLAREFMSGVDELPTVPDIVLRIAGKLNDPDVAIDEVADLLLQDQVLTARVVHLANSPLYSAARPISSIRDAVIYLGLDLLREAIFTCAIVDLFKTGKGPLNRSTLWAHSLGVARIAKLIAERTGFLNPVNVYVAGLLHDVGEVFINFFRGKEFSQVVTLVDEEKITFGQAEERLFGTSHCEVGFALAKRWSLNEFICDTILYHHDIEAVPYKQAAIVAMVAFADEYCTLRRLGFEGHKPVDSVRTLLENHPSWGVIRRSLGGSDFDEKLIVAELDSSIVEIRAAVDELFLL
MGSDKIHHHHHHMDKAKLIDLIKTNPNALVYIPNPSDELKLLAVQKNGLALKHIEHPTPEMQELALANNSRAIQFIDNPTEEMMNKAIQDSWVNLEYLQHPSETIIKLAITQAGWAIKYVKHPSEELQLLAVRRHYDSIKFIKDPCPKAQEEAVRINYDALRYIDSPTPQAELLAIRNHESAIAFVKDLSKEKILQFLGVNFLVIKYVRNDITKAELEQVLKETLGQEDVDEKYVRDFLNSSTIHKNSGQMSLDKIMFIYHYGSRKAKKVAVDEKLKI
MGSDKIHHHHHHMDKFLYIAMSGAKQGMNALAVSANNLANANTDGFKADMVQARSMQAFGEGLPTRVFSMMESPGSNFNGGPIKTTGRDLDIAVKGDGWLAVQAADGSEGYTRAGSLKIDSTGMLLNSSNRPVMGASGPIVLPIPVEKIEISANGIISVRPQGATAEVIEEVARIKLVNPGNENLMRGEDGLFRLIAGGNAPNDPGVQVESGAVEGSNVNSVHEMVAMIDIQRQYEMQVKMMKNAEEIDRASTSLMRIS
MGSDKIHHHHHHMDKGKSVKSTEKSVGMPPKTPKTDNNAHVDNEFLILQVNDAVFPIGSYTHSFGLETYIQQKKVTNKESALEYLKANLSSQFLYTEMLSLKLTYESALQQDLKKILGVEEVIMLSTSPMELRLANQKLGNRFIKTLQAMNELDMGEFFNAYAQKTKDPTHATSYGVFAASLGIELKKALRHYLYAQTSNMVINCVKSVPLSQNDGQKILLSLQSPFNQLIEKTLELDESHLCTASVQNDIKAMQHESLYSRLYMS
MGSDKIHHHHHHMDKIIGLGNALIDVLATLKDDTLLDELELPKGSMQLIDDAKLQQINTKFSQMKTHLATGGSAGNAILGLACLGAGTGFIGKVGNDHYGDFFRKNLQKNNIEDNLLTSEQLPSGVASTFISQDGERTFGTYLGAAASLKAEDLTLEMFKGYAYLFIEGYLVQDHEMILHAIELAKEAGLQICLDMASYNIVENDLEFFSLLINKYVDIVFANEEEAKAFTGEEPEEALRVIAKKCSIAIVKVGANGSYIRKGTEEIKVSAIPVEKVLDTTGAGDYFAAGFLYGLTCGYSLEKCAKIGSILSGNVIQVIGTTISPERWDEIKLNINKVLAE
MGSDKIHHHHHHMDKLIAFLKDKKITEVECVISDMTGIARGKIAPVDKFVSEKGMRLPESVLLQTVTGDFIDDEVYYQLLDDADIDFVCVPDENAVFMLPWTVEATAQVIHDCYDRMGNPIELSPRNVLKKVLKLYEDKGWEPVIAPEMEFYLTKRSDDHDLPLKPPIGRSGRPEAGRQSFSIDAANEYDPLFEDMYDWCEIQGLDIDTLIHEDGPAQMEINFSHGNALSLADQVFIFKRTLKEAALKHDVCATFMAKPVTDEPGSAMHIHQSVLDIKTGKNIFTKDDGTQSKLFLSYIAGLQQYIPELLPLMAPSANSFRRFLPGTSAPVNLEWGVENRTCGLRIPESSPQNRRIENRIPGADANCYLAIAASLLCGYIGMVDDLKPSTPVTGKSNESRTNNENCLPLTLEEALVAMQSSDACIEYLGQSFTTGFVAVKQAELENFRRVVSSWEREFLLLTV
MGSDKIHHHHHHMDKMKAITFFDLDGTLLDGTSQITPEITAAVAALKDNQILPLIATGRTLCEIQPIMKASGIDSAIVMNGQFIHYEGKTIYSDEFTTEECVSLHEHVKQRGHELAFYNERRIFCTGHTGTVKQAYDYIHSAVPEIDPTGYENDAVNMMLVLSQHGDDDEYYYERFPELTFYRNGPFSIDIVRKGVSKGSGVKNLFNTLGLNGIPTYAFGDGINDLALFEACDYGIAMGNAREELKEKATFISTKNTENGIVNGLKKFDLL
MGSDKIHHHHHHMDLGAPIGAHGNQPETEAATQCEIVLQGPTCGFPSWTRHCNIDCIRDFQPFDRLMKQGQRKTKLEFHNDGRLLAAQGDDICGPDLAFYRVTLSLQQRFDRGVEILFTFHPGHACPGSVSMAMCPRLIFMRNTMNRLLSRAQRSGDRRHALGHSGAVPATLRPFLSLICFCLVAVWMATPLRAACSGLDLRESAAPGMWAEIEAEIALTPFARGLSWVATRGDRRLHIIGTMHLNDPRHDALVAHMAPAIQAADAVLLEVNRADKARLERTLAETPSLIFITEGPTLIDRLPPEEWDEIAERAGAAGIPPFMAAKMRPWFLSLSMSVPLCARAIEDVTDGLDMKLMTLAERAGVETLSLEDPLGLFQLFDATPIEEQIKELRSYIAMAGVGADDFYTMVESYFDGEVQAYVLLQLKQFLTSESDLSVAERQAQVDDLLEALLYQRNRDWIPVIEATAGNRLVIAVGAAHLPGEAGVLALLEAEGYQIEEALR
MGSDKIHHHHHHMDNKFKNIPKRHLPQKLPFDYTSIYTDPQIIKLTTRANIAIGTYEGFLESIINPMLLISPLLSQEAVLSSKLEGTHATLKDLLNYEAGNKVDIERDELHEIINYRKALFYALENISTINNIDSKGLPLSNRIIKEMHKILLDNVRGSSKNPGNFKRSQNYIGSVSSISYTPVPAEKTPEYMSNLEQYIHYDDLDLLVQSAIIHAQFEMIHPFEDGNGRIGRLLIPLFLYYQELLSYPTFYMSSYFERDRSLYISHLSNISKDNNWKDWFEYYLEGVILSAEESTKKAQDILSLYNIMKEQVIPKLNSVSGIQLLDFIFSAPIFKAEQVSEHLKISKRTTYTLLNKLIDEGYLSTDNAQRNRTYYCPQLLSIVQ
MGSDKIHHHHHHMDNNTLDEYRAVYLTAEDLRLAASILYNAYHDDPFFVDTLSSSDKFAYEQKLRAAIREELNTLWQQKQALIGLFDGAHLMGVACVVTQKVPLGEGRYWHWRLKMLLGTGWQSTQAMMKKESTILELLPSQRCGILQFIALAPNEQGKGLGHQLVQAVVSWCDEQPNLEGIGVFTTQEAHTHLFKQHDFVSLGELVIGSVTGQLLFYTGQQDE
MGSDKIHHHHHHMDQEKTPLLDALKGYVEENVIPFHVPGHKQGRGNPELRKYIGSKVLKMDVNGMKELDYIGNPSGVIAEAQHLCAEAFGAEQAYFLVNGTSSGVQAMIMSACNPGNEIIIPRNAHKSTIGAIILSGAIPVYVQPQVNKVLGIATGVSAESIQKAIEEHPQAKAVFIINPSYYGIHSDLKSIVEISHQANMTVLADEAHGAHLYFHPEFSLNAIEAGADMSAVSLHKTGGAMTQSSVLLHQGDRISVDRVKQVLQLSYTSSASYILMLSIDVARKQLATRGQLLLNKTLALARQARQELNDIEDIYAFGKELIGSPGCADFDETKLGIHVRKLGLTGYQIERILRERYKIQIEFSDIYNALAIVSLGDRRENLRKLVAAFREIADERETKDASKWFNIPFCPEMIVTPRDAFYSPKRIVPLELSSGEISGEMIMAYPPGIPVICMGERITQEIIEYIQLLQVEGCELQGATDAGINHIKVLGSALPQASVSKSVSPSRSAYQEIPVYLSP
MGSDKIHHHHHHMDRVLFLAMTGAKHEAWQQATTANNLANVNTNAFKADLAAYRALPVVGDGAPTRTYVVDNTIGFDASQGSLQHTGNPSDFALGTPGFFAVQGADGQEAYTRDGGYVLDATGLMRTHSGLLIMGDGGPITVPAGSQVQLGSDGSVMAVPQSGANRAPQLVGQIKMVNPGPKDVYKGEDKLFHVNGGGTLPASADVKLVPETLESSNVNSVEALVQMISHGRQYELNIKMMQTSQQNDQQAAQLLSMS
MGSDKIHHHHHHMDSGMNEKTTAELEHLRGLIDGVDQQLLHLLRKRLDLVAQVGTVKHGAGLPIYAPQREAAMLAKRREEAKNMGIAPQLIEDILRRLMRESYLNEKDVGFKQVKKDLGSVVIVGGKGQLGGLFSQMLTLSGYQVNLLDKDDWQQADSLFADAGMVLVTVPIAITCELIREKLTQLPADCILADLTSIKTEPVKAMLEAHSGPVVGFHPMFGPDVGSLAKQVVVVCHGRSPEKYQWLLEQIAIWGARIVEAEPERHDSAMQLVQAMRHFSTFVYGLNLCKEEADIDTLLQFSSPIYRLELAMVGRLFAQSPELYADIIFAQQDSQHAIGDYLDNYREALELLKRGDRNEFIKQFQSVAKWFGDFAPQFQRESRIMLQSVNDMKTN
MGSDKIHHHHHHMDSLSSILKSVRLQGSVYFNACFASPWGLDLDQNQRAYFHLIIRGACYLQLGDKKEQLQGGDIIILPHGTAHQLFDDPSSVRVNATGVVPGLIDGINPFEGVGHSQDIDILCGYFNFNNSTPSYFLNALPDVIHLTQEHRTHFSFLDNALSFITQETKMKNLGREILIDRVTELLFVQIMRVYININGNEENIFSALSDRTLSEALQLMHTESDKNWTVESLAKAIGMSRSRFSEHFHNYIGETPMRYLHTCRMEVAKQKIEETESTLNIISEEVGYASDSAFKKAFKKFFGNTPSTFRQKNDK
MGSDKIHHHHHHMDVLVVGATGTLGRQIARRALDEGHRVRCLVRSPKRGNFLREWGCDLVRGDLTQPESLTFALEGIEAVIDAATTRSTDSLSCYDVDWQGKVNLIKAATEAGVQRFVFCSIIDAEKHRDVPLMDIKYCTEEFLRQSGLNYTILRLAGFMQGLIAEFAIPVLEGRTAFITQDSDPIAYLSTLDIARFAVAALTTPATEKQTLPVVGPKAWSGLEIFRLCERLSGKETKIARLPLATVSAMKRFFRFFQWGWNIADRLAFSEVMACGRPFTADMAATYTAFGIDPAEITGLESYLNDYFSVMLRRLKELEFDQKKDKKKKVPF
